Experimental data published in patent publication US20150374794A1 (Novo Nordisk, published 2015).
Numbered stars: 1 amine (or outer) side, 2 acyl side, 3 side chain; on linkers, the order of the positions; unused ones are H or OH. Square brackets hold non-standard residues; d marks the D form. Side chains are listed from the residue outwards. Ends that are not written are not given here. * marks the point of attachment. C18 diacid = O=C(O)CCCCCCCCCCCCCCCCC(=O)*; γGlu = O=C(O)[C@H](CCC(=O)[*:2])N[*:1]; AEEA = NCCOCCOCC(=O)O; Ac3c = NC1(C(=O)O)CC1; Aib = CC(C)(N)C(=O)O

B1: N^ε28-[(4S)-4-carboxy-4-[[(4S)-4-carboxy-4-[[2-[2-[2-[[2-[2-[2-[[(4S)-4-carboxy-4-(17-carboxyheptadecanoylamino)butanoyl]amino]ethoxy]ethoxy]acetyl]amino]ethoxy … (peptide)
peptide: H[Ac3c]QGTFTSDLSKYLESRRAREFVQWLLK([γGlu-γGlu-AEEA-AEEA-γGlu-C18 diacid])T-NH2
modifications: N-terminus assumed
SMILES: CC(C)C[C@H](NC(=O)[C@H](Cc1ccc(O)cc1)NC(=O)[C@H](CCCCN)NC(=O)[C@H](CO)NC(=O)[C@H](CC(C)C)NC(=O)[C@H](CC(=O)O)NC(=O)[C@H](CO)NC(=O)[C@@H](NC(=O)[C@H](Cc1ccccc1)NC(=O)[C@@H](NC(=O)CNC(=O)[C@H](CCC(N)=O)NC(=O)C1(NC(=O)[C@@H](N)Cc2c[nH]cn2)CC1)[C@@H](C)O)[C@@H](C)O)C(=O)N[C@@H](CCC(=O)O)C(=O)N[C@@H](CO)C(=O)N[C@@H](CCCNC(=N)N)C(=O)N[C@@H](CCCNC(=N)N)C(=O)N[C@@H](C)C(=O)N[C@@H](CCCNC(=N)N)C(=O)N[C@@H](CCC(=O)O)C(=O)N[C@@H](Cc1ccccc1)C(=O)N[C@H](C(=O)N[C@@H](CCC(N)=O)C(=O)N[C@@H](Cc1c[nH]c2ccccc12)C(=O)N[C@@H](CC(C)C)C(=O)N[C@@H](CC(C)C)C(=O)N[C@@H](CCCCNC(=O)CC[C@H](NC(=O)CC[C@H](NC(=O)COCCOCCNC(=O)COCCOCCNC(=O)CC[C@H](NC(=O)CCCCCCCCCCCCCCCCC(=O)O)C(=O)O)C(=O)O)C(=O)O)C(=O)N[C@H](C(N)=O)[C@@H](C)O)C(C)C
B2: N^ε28-[(4S)-4-carboxy-4-[[(4S)-4-carboxy-4-[[2-[2-[2-[[2-[2-[2-[[(4S)-4-carboxy-4-(17-carboxyheptadecanoylamino)butanoyl]amino]ethoxy]ethoxy]acetyl]amino]ethoxy … (peptide)
peptide: H[Aib]QGTFTSDLSKYLD[Aib]RRAREFVQWLLK([γGlu-γGlu-AEEA-AEEA-γGlu-C18 diacid])T-NH2
modifications: N-terminus assumed
SMILES: CC(C)C[C@H](NC(=O)[C@H](Cc1c[nH]c2ccccc12)NC(=O)[C@H](CCC(N)=O)NC(=O)[C@@H](NC(=O)[C@H](Cc1ccccc1)NC(=O)[C@H](CCC(=O)O)NC(=O)[C@H](CCCNC(=N)N)NC(=O)[C@H](C)NC(=O)[C@H](CCCNC(=N)N)NC(=O)[C@H](CCCNC(=N)N)NC(=O)C(C)(C)NC(=O)[C@H](CC(=O)O)NC(=O)[C@H](CC(C)C)NC(=O)[C@H](Cc1ccc(O)cc1)NC(=O)[C@H](CCCCN)NC(=O)[C@H](CO)NC(=O)[C@H](CC(C)C)NC(=O)[C@H](CC(=O)O)NC(=O)[C@H](CO)NC(=O)[C@@H](NC(=O)[C@H](Cc1ccccc1)NC(=O)[C@@H](NC(=O)CNC(=O)[C@H](CCC(N)=O)NC(=O)C(C)(C)NC(=O)[C@@H](N)Cc1c[nH]cn1)[C@@H](C)O)[C@@H](C)O)C(C)C)C(=O)N[C@@H](CC(C)C)C(=O)N[C@@H](CCCCNC(=O)CC[C@H](NC(=O)CC[C@H](NC(=O)COCCOCCNC(=O)COCCOCCNC(=O)CC[C@H](NC(=O)CCCCCCCCCCCCCCCCC(=O)O)C(=O)O)C(=O)O)C(=O)O)C(=O)N[C@H](C(N)=O)[C@@H](C)O

Legend:
human GLP-1 receptor [1] = molecular target: T1, human GLP-1 receptor (human, UniProt P43220 24-463); assay: cell-based or functional assay
human glucagon receptor [2] = molecular target: T2, human glucagon receptor (human, UniProt P47871 26-477); assay: cell-based or functional assay
human GLP-1 receptor [3] = molecular target: T1, human GLP-1 receptor; assay: displacement of 125I-GLP-1(7-36)NH2, membranes with human GLP-1R, SPA
Description: (§1) The receptor binding of each compound to the human GLP-1 receptor was measured in a displacement binding assay. […] Each derivative was added in a series of concentrations to isolated membranes containing the human GLP-1 receptor and displacement of the labelled ligand was monitored. The receptor binding was reported as the concentration at which half of the labelled ligand was displaced from the receptor, the IC₅₀ value.

human glucagon receptor [4] = molecular target: T2, human glucagon receptor; assay: displacement of 125I-glucagon, membranes with human glucagon receptor, SPA
Description: as §1, with “human glucagon” for “human GLP-1”, “ligand is” for “ligand was”

T2 sequence (P47871 26-477): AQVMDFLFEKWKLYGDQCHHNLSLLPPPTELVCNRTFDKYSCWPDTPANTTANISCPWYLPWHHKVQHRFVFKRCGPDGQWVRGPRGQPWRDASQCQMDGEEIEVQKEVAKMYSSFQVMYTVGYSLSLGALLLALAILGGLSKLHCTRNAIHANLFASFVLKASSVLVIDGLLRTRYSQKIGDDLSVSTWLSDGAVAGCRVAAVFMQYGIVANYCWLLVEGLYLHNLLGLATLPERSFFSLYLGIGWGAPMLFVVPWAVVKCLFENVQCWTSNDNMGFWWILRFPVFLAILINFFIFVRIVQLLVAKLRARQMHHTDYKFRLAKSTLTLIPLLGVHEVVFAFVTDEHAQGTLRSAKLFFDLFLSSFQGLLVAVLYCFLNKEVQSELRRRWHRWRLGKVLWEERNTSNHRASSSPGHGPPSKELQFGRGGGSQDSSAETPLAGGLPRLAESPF

Binder	EC50 GLP-1R, CRE luciferase reporter gene assay in BHK cells (human GLP-1 receptor [1])	EC50 GlucR, CRE luciferase reporter gene assay in BHK cells (human glucagon receptor [2])	IC50 (human GLP-1 receptor [3])	IC50 (human glucagon receptor [4])
B1	0.011 nM	0.28 nM	2.2 nM	26.2 nM
B2	0.006 nM	0.004 nM	0.7 nM	1.4 nM
